Test results reported in article PMC5481817, “Developing Targeted Hybrid Imaging Probes by Chelator Scaffolding” (Bioconjugate chemistry, 2017).
*1 amine or outer side, *2 acyl side, *3 side chain or, on linkers, in order; H or OH if unused. Where a SMILES comes first, the peptide text is derived from it. Bridges are numbered along the chain shown (N, C = ends). Roman numbers before positions name the chains, in order. [ ]: non-standard residue; d: D form. X1 = C/C1=C/C(=O)N(O)CCC[C@H](NC(=O)CCN2C(=O)CC([*:2])C2=O)C(=O)OCC/C(C)=C\C(=O)N(O)CCC[C@H](NC(=O)CCN2C(=O)CC([*:1])C2=O)C(=O)OCC/C(C)=C\C(=O)N(O)CCC[C@H](NC(=O)CCCCC[N+]2=C(C=CC3=CC(=CC=C4N(C)c5ccc(S(=O)(=O)[O-])cc5C4(C)C)CCC3)C(C)(C)c3cc(S(=O)(=O)O)ccc32)C(=O)OCC1; Mpa = O=C(O)CCS

Columns and labels:
[1] = physchem; type: physicochemical; settings: buffer or solvent
Procedure: (§1) [^68Ga]Sulfo-Cy7-FSC-MG and [^68Ga]Sulfo-Cy7-FSC-RGD (6 MBq) were diluted with phosphate buffered saline to a concentration of 1 μM. Subsequently 50 μL of this solution was added to six Eppendorf tubes containing 450 μL PBS and 500 μL octanol. The mixture was vortexed (1400 rpm) at RT for 15 min using a MS 3 basic vortexer (IKA, Staufen, Germany) followed by centrifugation for 2 min at 4500 rpm. Aliquots of 100 μL of both phases were transferred to plastic vials, measured in the γ-counter and logD values were calculated. For stability testing, radiolabeled tracers were diluted with 450 μL fresh human serum and 450 μL PBS as control to a concentration of 2 μM followed by incubation at 37 °C. After 1, 2, and 4 h (n = 3) 50 μL aliquots were precipitated with acetonitrile (1:1) and centrifuged for 2 min at 14 × 10^3 rpm. The supernatant was analyzed by radio-RP-HPLC to evaluate for decomposition and corresponding chromatograms are shown in Supporting Information. For protein binding measurement aliquots were analyzed by size exclusion chromatography using MicroSpin G-50 Columns (Sephadex G-50, GE Healthcare, Vienna, Austria) in triplicates. First, the columns were centrifuged at 750 rcf for 1 min to remove the storage buffer. After adding 25 μL of incubation solution columns were centrifuged again for 2 min with 2000 rcf. Column and eluate were measured in the γ-counter and percentages of nonprotein bound radiolabeled peptide (column) and protein bound radiotracer (eluate) were calculated.

[2] = in vivo; settings: mouse
Procedure: All animal experiments were conducted in accordance with regulations and guidelines of the Czech Animal Protection Act (No. 246/1992), and with the approval of the Czech Ministry of Education, Youth, and Sports (MSMT-22421/2013–12), and the institutional Animal Welfare Committee of the Faculty of Medicine and Dentistry of Palacky University in Olomouc. The studies were performed using female 8–10-week-old athymic BALB/c nude mice (Envigo, Horst, The Netherlands). The number of animals was reduced as much as possible (n = 3 per group and time point for all experiments) and retro-orbital (r.o.) tracer injection as well as small animal imaging was carried out under 2% isoflurane anesthesia (FORANE, Abbott Laboratories, Abbott Park, IL, USA) to minimize animal suffering.
Tumor xenografts were established near the front shoulder of mice by subcutaneous injection of 5 × 10^6 cells (U-87 MG) or 2 × 10^6 cells (A431-CCK2R) and the same amount of A431-mock cells as a control in 200 μL appropriate medium and Matrigel (1:1). The tumors were allowed to grow until they had reached a volume of 0.2 to 0.5 cm^3. To evaluate ex vivo biodistribution mice were injected with 1–2 MBq (0.05–0.14 nmol) of radiotracer per mouse and mice were sacrificed by cervical dislocation after 30 and 90 min for [^68Ga]Sulfo-Cy7-FSC-RGD and after 1 and 2 h in the case of [^68Ga]Sulfo-Cy7-FSC-MG. Tumors, blood, muscle tissue, and organs were extracted, weighed, and activity uptake of the samples was measured in the gamma counter. Results were expressed as percentage of injected dose per gram tissue (% ID/g). In vivo PET and CT images were acquired with an Albira PET/SPECT/CT small animal imaging system (Bruker Biospin Corporation, Wood-bridge, CT, USA). Xenograft bearing mice were injected with radiolabeled peptides in a dose of ~5 MBq corresponding to 1–2 μg (0.25–0.58 nmol) of peptide per mouse. Anaesthetized animals were positioned prone head first in the Albira system before the start of imaging. Static PET/CT imaging was carried out 30 and 90 min p.i. for [^68Ga]Sulfo-Cy7-FSC-RGD. Animals injected with [^68Ga]Sulfo-Cy7-FSC-MG were imaged 1 and 2 h p.i. A 10 min PET scan (axial FOV 148 mm) was performed, followed by a CT scan (axial FOV 65 mm, 45 kVp, 400 μA, at 400 projections). Scans were reconstructed with the Albira software (Bruker Biospin Corporation, Woodbridge, CT, USA) using the maximum likelihood expectation maximization (MLEM) and filtered backprojection (FBP) algorithms. After reconstruction, acquired data was viewed and analyzed with PMOD software (PMOD Technologies Ltd., Zurich, Switzerland). 3D images were obtained using VolView software (Kitware, Clifton Park, NY, USA). Near-infrared in vivo fluorescence imaging was performed with an In-Vivo MS FX PRO small animal imaging system (Bruker Biospin Corporation, Woodbridge, CT, USA). Sulfo-Cy7-FSC-MG and Sulfo-Cy7-FSC-RGD were injected in a dose of 0.25–0.58 nmol per mouse and after supine head first positioning, imaging was conducted in various time intervals up to 72 h p.i. An appropriate filter set (excitation = 730 nm and emission = 790 nm) was used for acquiring the Sulfo-Cy7-FSC-peptide - fluorescence in vivo. Identical illumination settings (acquisition time = 15 s, filters = 730/790 nm, f-stop = 2.8, field of view = 100 mm, and binning = 4 × 4) were used for acquiring all images, and fluorescence emission was normalized to photons/s/mm^2. Images were acquired and analyzed using Bruker MI SE software (Bruker Biospin Corporation, Woodbridge, CT, USA).

[3] = tested on: A431-CCK2R cells; assay: CCK-2 receptor internalization assay (radioligand); type: cell-based, human; settings: for unspecific membrane bound amount: blocked with pentagastrin
Procedure: To determine the receptor-mediated radioligand uptake A431-CCK2R cells were seeded into 12-well plates (Nunc, Thermo Scientific) with a density of 2 × 10^6 cells per well and left to grow overnight at 37 °C. At the day of the experiment each well was washed twice with fresh internalization medium (DMEM containing 1% fetal bovine serum) followed by the adjustment to a final volume of 1.2 mL with media. After dividing the plate into an unblocked and blocked compartment (6 wells each) 150 μL PBS/0.5% bovine serum albumin (BSA) solution or 150 μL blocking solution (100-fold molar excess of pentagastrin in PBS/0.5% BSA solution) were added and left for 10 min at room temperature. Hereafter, 150 μL of the radiolabeled peptide (1 nM [^68Ga]Sulfo-Cy7-FSC-MG in PBS/0.5% BSA approximately 3 × 10^4 cpm) was added to each well followed by incubation at 37 °C for 1 and 2 h, respectively. After removal of the supernatant each well was washed two times with 1 mL ice-cold internalization medium and supernatants were collected in plastic vials (wash fraction). For determination of the membrane bound radiotracer cells were incubated twice with 1 mL ice-cold 0.05 M glycine-buffer (pH 2.8) for 5 min collecting the supernatants. Finally, internalized fraction was obtained by lysing the cells with 1 mL of 2 M sodium hydroxide solution (NaOH) two times and collecting the samples. To determine the amount of radiotracer of each fraction all samples were taken for γ-counter measurement against standard solution, i.e., 150 μL radiotracer.

[4] = tested on: A431-CCK2R/A431-mock tumor xenograft-bearing BALB/c nude mice; assay: Static micro-PET/CT imaging, A431-CCK2R/A431-mock xenografts; type: in vivo, mouse; settings: static PET, 60 and 120 min post-injection
Procedure: All animal experiments were conducted in accordance with regulations and guidelines of the Czech Animal Protection Act (No. 246/1992), and with the approval of the Czech Ministry of Education, Youth, and Sports (MSMT-22421/2013–12), and the institutional Animal Welfare Committee of the Faculty of Medicine and Dentistry of Palacky University in Olomouc. The studies were performed using female 8–10-week-old athymic BALB/c nude mice (Envigo, Horst, The Netherlands). […]
Tumor xenografts were established near the front shoulder of mice by subcutaneous injection of 5 × 10^6 cells (U-87 MG) or 2 × 10^6 cells (A431-CCK2R) and the same amount of A431-mock cells as a control in 200 μL appropriate medium and Matrigel (1:1). […] Tumors, blood, muscle tissue, and organs were extracted, weighed, and activity uptake of the samples was measured in the gamma counter. Results were expressed as percentage of injected dose per gram tissue (% ID/g). […] After reconstruction, acquired data was viewed and analyzed with PMOD software (PMOD Technologies Ltd., Zurich, Switzerland). […] Near-infrared in vivo fluorescence imaging was performed with an In-Vivo MS FX PRO small animal imaging system (Bruker Biospin Corporation, Woodbridge, CT, USA). […] An appropriate filter set (excitation = 730 nm and emission = 790 nm) was used for acquiring the Sulfo-Cy7-FSC-peptide - fluorescence in vivo. […]

[5] = in vitro; type: in vitro ADME, human; settings: human, serum
Procedure: as §1, with “First, the columns were centrifuged at 750 rcf for 1 min to remove the storage buffer. After adding 25 μL of incubation solution columns were centrifuged again for 2 min with 2000 rcf.” left out

[6] = type: physicochemical; settings: pH 7.4
Procedure: as §1, with “First, the columns were centrifuged at 750 rcf for 1 min to remove the storage buffer. After adding 25 μL of incubation solution columns were centrifuged again for 2 min with 2000 rcf.” left out

Q: With `CSCC[C@H](NC(=O)[C@H](Cc1c[nH]c2ccccc12)NC(=O)CNC(=O)[C@H](Cc1ccc(O)cc1)NC(=O)[C@H](C)NC(=O)[C@@H](CCC(=O)O)NC(=O)CCSC1CC(=O)N(CCC(=O)N[C@H]2CCCN(O)C(=O)/C=C(/C)CCOC(=O)[C@@H](NC(=O)CCN3C(=O)CC(SCCC(=O)N[C@H](CCC(=O)O)C(=O)N[C@@H](C)C(=O)N[C@@H](Cc4ccc(O)cc4)C(=O)NCC(=O)N[C@@H](Cc4c[nH]c5ccccc45)C(=O)N[C@@H](CCSC)C(=O)N[C@@H](CC(=O)O)C(=O)N[C@@H](Cc4ccccc4)C(N)=O)C3=O)CCCN(O)C(=O)/C=C(/C)CCOC(=O)[C@@H](NC(=O)CCCCC[N+]3=C(C=CC4=CC(=CC=C5N(C)c6ccc(S(=O)(=O)[O-])cc6C5(C)C)CCC4)C(C)(C)c4cc(S(=O)(=O)O)ccc43)CCCN(O)C(=O)/C=C(/C)CCOC2=O)C1=O)C(=O)N[C@@H](CC(=O)O)C(=O)N[C@@H](Cc1ccccc1)C(N)=O` (stereo partly drawn) [[^68Ga]Sulfo-Cy7-FSC-MG, metal not drawn] (I: [Mpa][dE]AYGWMDF-NH2 / II: [Mpa][dE]AYGWMDF-NH2; linker I:1-II:1 via X1) as the molecule, how does the remaining at 1 h, 2 μM [1] read?
A: 95.1 ± 0.2%

Q: What about the remaining at 2 h, 2 μM [1] of the same molecule?
A: 94.9 ± 0.4%

Q: And the remaining at 4 h, 2 μM [1]?
A: 94.4 ± 0.1%

Q: What about the tissue to tissue ratio ([2]; female, athymic BALB/c nude, total radioactivity) of the same molecule?
A: < 0.5

Q: And the tissue uptake at 2 h ([2]; accumulation in kidneys)?
A: 71.1 ± 7 %ID/g

Q: And the tissue uptake at 2 h ([2]; accumulation in liver tissue)?
A: 25.7 ± 3.3 %ID/g

Q: And the tissue uptake at 1 h ([2]; blood)?
A: 4.7 ± 0.7 %ID/g

Q: And the tissue uptake at 2 h ([2]; blood)?
A: 3 ± 0.5 %ID/g

Q: And the tissue uptake at 1 h ([2]; tumor uptake)?
A: 3.1 ± 0.9 %ID/g

Q: What about the tissue uptake at 2 h ([2]; tumor uptake) of the same molecule?
A: 3.8 ± 0.7 %ID/g

Q: What about the internalized activity ([3]; blocked with pentagastrin in 100-fold molar excess, 1 h) of the same molecule?
A: 0.19 ± 0.1%

Q: And the internalized activity ([3]; blocked with pentagastrin in 100-fold molar excess, 2 h)?
A: 0.44 ± 0.41%

Q: What about the “unspecific membrane bound amount” value ([3]; 1 h) of the same molecule?
A: 0.13 ± 0.06%

Q: What about the “unspecific membrane bound amount” value ([3]; 2 h) of the same molecule?
A: 0.25 ± 0.23%

Q: And the “unspecific membrane bound amount of activity” value ([3]; unblocked, 1 h)?
A: 0.21 ± 0.08%

Q: And the internalized activity ([3]; unblocked, 1 h incubation)?
A: 4.56 ± 0.39 % of total activity

Q: And the “unspecific membrane bound amount of activity” value ([3]; unblocked, 2 h)?
A: 0.31 ± 0.29%

Q: And the internalized activity ([3]; unblocked, 2 h incubation)?
A: 8.75 ± 1.32 % of total activity

Q: And the PET target-to-organ contrast [4]?
A: moderate target-to-organ contrast

Q: And the fraction unbound at 2 μM [5]?
A: < 0.3

Q: And the logD [6]?
A: -1.9 ± 0.17
